What was measured:
Lenti-X 293T cells = assay: YFP fluorescence quenching anion reporter plate reader assay of engineered receptors stimulated with acetylcholine or a non-native ligand; type: cell-based
In short: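 YFP quench was followed for about 1 min 43 s after ligand delivered in iodide-based ECS, pH 7.2. Values are end-of-read fluorescence (last 10 s) divided by the pre-ligand baseline (15 s). Cells were LX293T, transfected with receptor DNA a day before the assay.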

rat DRG neurons = assay: Rheobase shift and evoked action potentials in rat DRG neurons (current clamp); type: cell-based
Method: Using whole cell manual patch clamp electrophysiology in HEK293 cells, rat DRG neurons and rat hippocampal neurons, the EC50 of the various engineered receptors disclosed herein to Ach and non-native ligands was measured using the Hill equation with peak current measurements from escalating doses of ligand. The rheobase shift was also measured in rat DRG neurons, which reflects the efficacy of the receptors. To calculate the rheobase, first, the amount of current that can produce an action potential was determined. Then the ligand was added, followed by a step wise increase in the current injected up to 700 pA.
For manual patch clamp experiments, Cells plated on coverslips were visualized at 10× and 40× on an inverted fluorescence microscope (Olympus). Recordings were made with an Axopatch 200B amplifier and Digidata 1550B (Molecular Devices) at RT using 3-6 MOhm glass patch electrodes (Sutter, BF150-86-10). Unless otherwise stated, recordings were made in extracellular solution (ECS) containing: 140 mM sodium chloride, 4 mM potassium chloride, 1 mM magnesium chloride, 2 mM calcium chloride, 10 mM HEPES, and 10 mM D-(+)-glucose (pH=7.3 with sodium hydroxide, osmolarity=305−315 mOsm). An 8-line reservoir (AutoMate Scientific) in combination with an 8-channel zero-dead-volume perfusion pencil (AutoMate Scientific) was used for perfusion. Data was acquired using pClamp software (Molecular Devices). Traces were either analyzed in Clampfit (Molecular Devices) or using custom Python code. Plotting and statistics were performed in GraphPad Prism.
DRG rheobase experiments were performed in current clamp mode using a potassium-based internal solution containing: 100 mM potassium D-gluconate, 28 mM potassium chloride, 1 mM magnesium chloride hexahydrate, 5 mM magnesium ATP, 10 mM HEPES, and 0.5 mM EGTA (pH=7.2 with potassium hydroxide, osmolarity=290-295 mOsm, calculated liquid junction potential=−13.5 mV). To measure DRG input resistance and rheobase, 500 ms current steps (−200 pA to 700 pA) were applied the membrane in the presence and absence of a compound. No holding current was applied to the membrane for cells included in the final datasets. Data were acquired at 10 kHz, with Bessel filter at 2 kHz and series resistance compensation at 100%. Rheobase was defined as the smallest depolarizing current injection required to cause an action potential to fire in the cell. In a subset of cells, the rheobase was ambiguous, since the action potential appeared to be graded in amplitude. In these cases, a […] of the trace clarified the rheobase. Input resistance was measured from the negative current injections, calculated as the difference in membrane potential at steady state divided by the current injection amplitude and then averaged across the four negative current steps for each recording. Resting membrane potential was measured from the first 100 ms of each sweep, averaged for each recording, and corrected for liquid junction potential. One-way ANOVA with multiple comparisons was used to test for significance of difference in rheobase and input resistance between baseline, drug, and wash conditions.

B1: CODA1025: engineered chimeric LGIC receptor, R101F, L131G in SEQ ID NO: 33 (protein)
chain: MRCSPGGVWLALAASLLHVSLQGEFQRKLYKELVKNYNPLERPVANDSQPLTVYFSLSLLQIMDVDEKNQVLTTNIWLQMSWTDHYLQWNVSEYPGVKTVFFPDGQIWKPDILLYNSADERFDATFHTNVGVNSSGHCQYLPPGIFKSSCPMDLKNFPMDVQTCKLKFGSWSYGGWSLDLQMQEADISGYIPNGEWDLVGIPGKRSERFYECCKEPYPDVTFTVTMRRRMGYYLIQMYIPSLLIVILSWISFWINMDAAPARVGLGITTVLTMTTQSSGSRASLPKVSYVKAIDIWMAVCLLFVFSALLEYAAVNFVSRQHKELLRFRRKRRHHKSPMLNLFQEDEAGEGRFNFSAYGMGPACLQAKDGISVKGANNSNTTNPPPAPSKSPEEMRKLFIQRAKKIDKISRIGFPMAFLIFNMFYWIIYKIVRREDVHNQ
modifications: synthetic sequence of chimeric LGIC
YFP fluorescence quenching using CNL001 (Lenti-X 293T cells; 1 nM CNL001, first column): −18.527%
YFP fluorescence quenching using CNL001 (Lenti-X 293T cells; 1 nM CNL001, second column): −21.577%
YFP fluorescence quenching using TC-5619/Bradanicline (Lenti-X 293T cells; 1 nM brd): −10.61%
YFP fluorescence quenching using TC-5619/Bradanicline (Lenti-X 293T cells; 3 nM brd): 2.63%
YFP fluorescence quenching using Varenicline (Lenti-X 293T cells; 3 nM var, first column): 48.074
YFP fluorescence quenching using Varenicline (Lenti-X 293T cells; 3 nM var, second column): 60.978
YFP fluorescence quenching using CNL001 (Lenti-X 293T cells; 10 nM CNL001, first column): 14.063%
YFP fluorescence quenching using CNL001 (Lenti-X 293T cells; 10 nM CNL001, second column): 49.818%
YFP fluorescence quenching using TC-5619/Bradanicline (Lenti-X 293T cells; 10 nM brd): 17.71%
YFP fluorescence quenching using TC-5619/Bradanicline (Lenti-X 293T cells; 30 nM brd): 68.48%
YFP fluorescence quenching using Facinicline (Lenti-X 293T cells; 30 nM fac): −8.99
YFP fluorescence quenching using Varenicline (Lenti-X 293T cells; 30 nM var, first column): 70.023
YFP fluorescence quenching using Varenicline (Lenti-X 293T cells; 30 nM var, second column): 69.433
YFP fluorescence quenching using CNL001 (Lenti-X 293T cells; 50 nM CNL001, first column): 77.765%
YFP fluorescence quenching using CNL001 (Lenti-X 293T cells; 50 nM CNL001, second column): 79.23%
YFP fluorescence quenching using ABT-126 (Lenti-X 293T cells; 50 nM abt): −11.53%
YFP fluorescence quenching using CNL001 (Lenti-X 293T cells; 100 nM CNL001, first column): 80.544%
YFP fluorescence quenching using CNL001 (Lenti-X 293T cells; 100 nM CNL001, second column): 80.695%
YFP fluorescence quenching using CNL002 (Lenti-X 293T cells; 100 nM CNL002): 12.48%
YFP fluorescence quenching using ABT-126 (Lenti-X 293T cells; 100 nM abt): −7.61%
YFP fluorescence quenching using AZD-0328 (Lenti-X 293T cells; 100 nM azd0328): 6.26%
YFP fluorescence quenching using ABT-126 (Lenti-X 293T cells; 300 nM abt): 6.55%
YFP fluorescence quenching using AZD-0328 (Lenti-X 293T cells; 300 nM azd0328): 37.98%
YFP fluorescence quenching using TC-5619/Bradanicline (Lenti-X 293T cells; 300 nM brd): 75.12%
YFP fluorescence quenching using Facinicline (Lenti-X 293T cells; 300 nM fac): 10.21
YFP fluorescence quenching using Varenicline (Lenti-X 293T cells; 300 nM var, first column): 78.989
YFP fluorescence quenching using Varenicline (Lenti-X 293T cells; 300 nM var, second column): 79.21
YFP fluorescence quenching using Varenicline (Lenti-X 293T cells; 500 nM var, first column): 79.212
YFP fluorescence quenching using Varenicline (Lenti-X 293T cells; 500 nM var, second column): 79.771
YFP fluorescence quenching using CNL001 (Lenti-X 293T cells; 1 uM CNL001, first column): 81.191%
YFP fluorescence quenching using CNL001 (Lenti-X 293T cells; 1 uM CNL001, second column): 82.385%
YFP fluorescence quenching using CNL002 (Lenti-X 293T cells; 1 uM CNL002): 46.04%
YFP fluorescence quenching using ABT-126 (Lenti-X 293T cells; 1 uM abt): 25.08%
YFP fluorescence quenching using TC-6987 (Lenti-X 293T cells; 1 uM tc6987): −13.32
YFP fluorescence quenching using Varenicline (Lenti-X 293T cells; 1 uM var, first column): 79.538
YFP fluorescence quenching using Varenicline (Lenti-X 293T cells; 1 uM var, second column): 80.577
YFP fluorescence quenching using TC-6987 (Lenti-X 293T cells; 10 uM tc6987): 43.71
YFP fluorescence quenching using CNL002 (Lenti-X 293T cells; 30 uM CNL002): 39.82%
YFP fluorescence quenching using AZD-0328 (Lenti-X 293T cells; 30 uM azd0328): 79.31%
YFP fluorescence quenching using Facinicline (Lenti-X 293T cells; 30 uM fac): 78.24
YFP fluorescence quenching using TC-6987 (Lenti-X 293T cells; 500 uM tc6987): 53.98
percent quench of YFP fluorescence, 30 nM TC-6683 (Lenti-X 293T cells; TC-6683 30 nM): −1.645%
percent quench of YFP fluorescence, 300 nM TC-6683 (Lenti-X 293T cells; TC-6683 300 nM): 3.043%
percent quench of YFP fluorescence, 3 uM TC-6683 (Lenti-X 293T cells; TC-6683 3 uM): 0.082%
percent quench of YFP fluorescence, 30 uM TC-6683 (Lenti-X 293T cells; TC-6683 30 uM): 2.449%
percent quench of YFP fluorescence, 100 uM TC-6683 (Lenti-X 293T cells; TC-6683 100 uM): 10.437%
percent quench of YFP fluorescence, 10 uM ach (Lenti-X 293T cells; acetylcholine 10 uM): 12.57%
percent quench of YFP fluorescence, 50 uM ach (Lenti-X 293T cells; acetylcholine 50 uM): −3.46%
percent quench of YFP fluorescence, 100 uM ach (Lenti-X 293T cells; acetylcholine 100 uM): 12.65%
percent quench of YFP fluorescence, 300 uM ach (Lenti-X 293T cells; acetylcholine 300 uM): −6.96%
percent quench of YFP fluorescence, 500 uM ach (Lenti-X 293T cells; acetylcholine 500 uM): −6.77%
percent quench of YFP fluorescence, 1 mM ach (Lenti-X 293T cells; acetylcholine 1 mM): 19.42%
percent quench of YFP fluorescence, 3 mM ach (Lenti-X 293T cells; acetylcholine 3 mM): 65.06%
Rheobase Shift; Rat DRG Neurons, +TC-5619 @ EC90 (rat DRG neurons; +TC-5619 @ EC90): 560 ± 72 pA
Rheobase Shift; Rat DRG Neurons, Baseline (rat DRG neurons; Baseline, no ligand): 140 ± 19 pA

Reference: patent publication US20240317834A1, “COMPOSITIONS AND METHODS FOR NEUROLOGICAL DISEASES” (CODA BIOTHERAPEUTICS, INC., priority 2020, published 2024)
